Data from PMC2763025 (Insect biochemistry and molecular biology, 2009).

Target: Cry11Aa toxin, trypsin-activated (Bacillus thuringiensis subsp. …, UniProt P21256 1-643)
Test: ELISA

B1: truncated AaeAPN1 fragment AaeAPN1t (amino acids 525-778) (domain or fragment)
chain: RTYETGDIIISQERFISDRKVPNTNVWMIPYNYVHQSKADFDDLSTFSWLSTKAARINTEVPANEWIIFNKQQVGYYRVNYDANNWELITNALINNLSSIDRLNRAQLIDDAYWLARSGRLDIEVLMKLLTYLKDETEYAPWTAANNVLSYFNGKLRGTPAYKDFTTMVDHLIKKVYKTLDVTAVSDTEPLLHKYLKQTISTWACLIGNEDCLKRTKEALQKEVTEGIPVHPDVATVVYCNGLRTADVAEYQYL
- Kd: 8.5 nM
